The source of these data is patent US20240293465A1.

One data set addresses human C3 (UniProt P01024).

Chain of human C3, P01024 (P01024 whole entry, looked up): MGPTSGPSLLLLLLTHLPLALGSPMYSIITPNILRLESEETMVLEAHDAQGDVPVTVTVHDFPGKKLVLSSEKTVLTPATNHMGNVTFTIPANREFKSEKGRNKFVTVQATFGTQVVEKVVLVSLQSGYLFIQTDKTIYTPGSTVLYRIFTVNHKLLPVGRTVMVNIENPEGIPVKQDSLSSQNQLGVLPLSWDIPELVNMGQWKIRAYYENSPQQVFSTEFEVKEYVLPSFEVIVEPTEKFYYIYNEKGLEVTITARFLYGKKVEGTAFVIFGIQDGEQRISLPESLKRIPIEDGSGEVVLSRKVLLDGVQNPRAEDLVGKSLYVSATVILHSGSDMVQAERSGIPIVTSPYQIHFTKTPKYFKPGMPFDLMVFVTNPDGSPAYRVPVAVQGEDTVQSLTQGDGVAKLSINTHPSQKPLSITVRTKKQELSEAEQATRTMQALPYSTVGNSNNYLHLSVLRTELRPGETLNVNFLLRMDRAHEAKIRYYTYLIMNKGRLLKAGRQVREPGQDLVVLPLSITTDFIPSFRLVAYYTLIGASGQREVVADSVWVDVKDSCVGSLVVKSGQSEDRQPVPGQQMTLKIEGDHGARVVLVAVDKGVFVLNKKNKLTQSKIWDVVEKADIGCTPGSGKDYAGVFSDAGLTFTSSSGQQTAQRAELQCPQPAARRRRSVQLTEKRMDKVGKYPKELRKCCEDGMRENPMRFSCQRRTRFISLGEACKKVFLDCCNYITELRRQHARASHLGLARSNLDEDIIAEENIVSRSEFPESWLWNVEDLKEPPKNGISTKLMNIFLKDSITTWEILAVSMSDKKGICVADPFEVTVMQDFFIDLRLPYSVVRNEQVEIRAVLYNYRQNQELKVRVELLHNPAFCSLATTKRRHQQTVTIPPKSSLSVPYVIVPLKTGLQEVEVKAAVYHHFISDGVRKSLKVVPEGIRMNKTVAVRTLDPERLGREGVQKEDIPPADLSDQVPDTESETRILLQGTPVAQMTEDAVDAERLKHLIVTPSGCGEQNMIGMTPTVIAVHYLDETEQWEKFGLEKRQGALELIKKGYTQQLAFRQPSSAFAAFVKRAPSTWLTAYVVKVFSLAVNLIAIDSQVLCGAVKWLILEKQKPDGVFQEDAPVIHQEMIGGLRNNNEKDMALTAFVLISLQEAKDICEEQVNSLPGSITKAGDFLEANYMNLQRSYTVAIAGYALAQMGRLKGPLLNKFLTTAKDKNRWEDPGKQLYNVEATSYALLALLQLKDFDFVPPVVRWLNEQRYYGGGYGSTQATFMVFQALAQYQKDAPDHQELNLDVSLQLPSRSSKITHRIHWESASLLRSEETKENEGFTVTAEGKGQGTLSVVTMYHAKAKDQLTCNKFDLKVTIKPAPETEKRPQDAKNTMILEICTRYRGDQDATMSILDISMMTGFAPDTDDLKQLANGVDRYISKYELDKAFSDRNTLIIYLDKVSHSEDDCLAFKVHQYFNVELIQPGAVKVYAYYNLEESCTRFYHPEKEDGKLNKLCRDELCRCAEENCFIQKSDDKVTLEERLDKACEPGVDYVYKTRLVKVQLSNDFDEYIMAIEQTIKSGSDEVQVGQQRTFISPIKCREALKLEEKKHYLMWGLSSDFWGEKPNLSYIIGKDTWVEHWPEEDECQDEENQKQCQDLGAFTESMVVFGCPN

For the molecule “human FCXIa (activated form of human clotting factor XI)”, the “cleavage of the C3 alpha chain to the a' chain (Western blot)” value (from here on “cleavage of the C3 alpha chain”) with human C3 is listed as “can cleave C3 in vitro in the absence of any complement proteases”.

“human FXa (activated form of human clotting factor X)”: the “cleavage of the C3 alpha chain” value in the data set with human C3 was “can cleave C3 in vitro in the absence of any complement proteases”.

B1: bovine FXa (activated bovine clotting factor X) (protein)
chain: ANSFLEEVKQGNLERECLEEACSLEEAREVFEDAEQTDEFWSKYKDGDQCEGHPCLNQGHCKDGIGDYTCTCAEGFEGKNCEFSTREICSLDNGGCDQFCREERSEVRCSCAHGYVLGDDSKSCVSTERFPCGKFTQGRSRRWAIHTSEDALDASELEHYDPADLSPTESSLDLLGLNRTEPSAGEDGSQVVRIVGGRDCAEGECPWQALLVNEENEGFCGGTILNEFYVLTAAHCLHQAKRFTVRVGDRNTEQEEGNEMAHEVEMTVKHSRFVKETYDFDIAVLRLKTPIRFRRNVAPACLPEKDWAEATLMTQKTGIVSGFGRTHEKGRLSSTLKMLEVPYVDRSTCKLSSSFTITPNMFCAGYDTQPEDACQGDSGGPHVTRFKDTYFVTGIVSWGEGCARKGKFGVYTKVSNFLKWIDKIMKARAGAAGSRGHSEAPATWTVPPPLPL
B1: the “cleavage of the C3 alpha chain” value with human C3, P01024 is reported as “can cleave C3 in vitro in the absence of any complement proteases”.
